Literature values, collected in publication PMC2751630.

Key:
PKA RIIα (Homo sapiens) = PKA RIIα (Homo sapiens) (UniProt P13861)
PKA RI (Homo sapiens) = PKA RI (Homo sapiens) (UniProt P10644)
PKA RIIβ (Homo sapiens) = PKA RIIβ (Homo sapiens) (UniProt P31323)
Sequence of PKA RIIβ (Homo sapiens) (P31323 whole entry): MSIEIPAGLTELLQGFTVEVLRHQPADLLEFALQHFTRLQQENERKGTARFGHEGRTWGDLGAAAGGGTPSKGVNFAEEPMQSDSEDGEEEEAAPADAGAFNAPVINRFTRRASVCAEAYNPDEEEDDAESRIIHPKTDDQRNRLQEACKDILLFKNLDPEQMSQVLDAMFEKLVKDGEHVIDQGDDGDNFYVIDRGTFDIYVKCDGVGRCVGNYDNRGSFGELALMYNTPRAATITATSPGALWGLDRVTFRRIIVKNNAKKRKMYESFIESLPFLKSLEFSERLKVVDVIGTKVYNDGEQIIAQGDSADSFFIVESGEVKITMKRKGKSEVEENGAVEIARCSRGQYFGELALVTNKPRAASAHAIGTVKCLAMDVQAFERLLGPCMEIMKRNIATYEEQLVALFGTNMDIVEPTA

Sequence of AKAP79 (P24588 whole entry): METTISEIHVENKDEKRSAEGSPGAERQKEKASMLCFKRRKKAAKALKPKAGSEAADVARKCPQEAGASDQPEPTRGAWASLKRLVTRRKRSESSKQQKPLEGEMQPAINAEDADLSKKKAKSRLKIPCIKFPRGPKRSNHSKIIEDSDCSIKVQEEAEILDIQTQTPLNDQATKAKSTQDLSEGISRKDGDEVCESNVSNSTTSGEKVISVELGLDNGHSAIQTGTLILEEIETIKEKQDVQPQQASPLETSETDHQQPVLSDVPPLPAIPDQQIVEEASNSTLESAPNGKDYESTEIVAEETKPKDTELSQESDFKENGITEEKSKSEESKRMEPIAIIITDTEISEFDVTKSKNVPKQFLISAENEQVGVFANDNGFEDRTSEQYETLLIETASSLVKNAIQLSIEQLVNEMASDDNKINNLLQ
Sequence of PKA RI (Homo sapiens) (P10644 whole entry): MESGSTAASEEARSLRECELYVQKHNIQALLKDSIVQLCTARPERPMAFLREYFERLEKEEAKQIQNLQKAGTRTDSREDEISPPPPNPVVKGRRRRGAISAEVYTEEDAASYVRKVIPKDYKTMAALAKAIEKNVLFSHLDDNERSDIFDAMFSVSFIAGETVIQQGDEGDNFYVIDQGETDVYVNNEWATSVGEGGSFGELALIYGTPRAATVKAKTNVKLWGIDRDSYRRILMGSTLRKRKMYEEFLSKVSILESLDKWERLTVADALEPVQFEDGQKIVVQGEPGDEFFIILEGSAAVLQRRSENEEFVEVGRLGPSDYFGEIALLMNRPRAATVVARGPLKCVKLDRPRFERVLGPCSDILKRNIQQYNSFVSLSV
Sequence of PKA RIIα (Homo sapiens) (P13861 2-404): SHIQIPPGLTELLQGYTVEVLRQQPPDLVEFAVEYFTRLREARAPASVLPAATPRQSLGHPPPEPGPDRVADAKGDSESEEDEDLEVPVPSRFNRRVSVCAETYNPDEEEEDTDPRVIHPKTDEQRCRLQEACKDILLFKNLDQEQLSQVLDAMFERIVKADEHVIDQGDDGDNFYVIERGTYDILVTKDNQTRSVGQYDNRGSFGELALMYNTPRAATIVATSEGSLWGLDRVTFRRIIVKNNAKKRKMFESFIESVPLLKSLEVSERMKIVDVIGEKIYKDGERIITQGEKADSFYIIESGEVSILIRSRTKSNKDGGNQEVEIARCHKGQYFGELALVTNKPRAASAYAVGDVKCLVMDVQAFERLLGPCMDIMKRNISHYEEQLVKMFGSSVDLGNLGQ

- Kd (PKA RIIα (Homo sapiens)): 1.5 nM
- Kd (PKA RI (Homo sapiens)): > 1000 nM
- Kd (PKA RIIβ (Homo sapiens)): 4.5 nM
Substance: AKAP79 (from UniProt P24588)
